From patent US20230250191A1 (SHANGHAI JEMINCARE PHARMACEUTICAL, published 2023)

Tests used:
[1] = biological target: T1, cynomolgus monkey IgE CH3-CH4 (cynomolgus monkey); assay: BLI (Octet), method of Example 2, biotinylated cynomolgus IgE CH3-CH4
T1 construct: domain: CH3-CH4; Custom protein; also called Biotin -cyno IgE CH3-CH4; Biotin-cyno IgE
Protocol: Detection of samples on machine (Octet Data Acquisition 11.1.0.11): First, samples were added to a 96-well plate (Greiner bio-one, 655209) with 200 µL/well according to the following table. The software parameters were then set, the plate temperature was set at 30° C., and the frequency of standard kinetic signals was collected at 5.0 Hz. Next, the CH1 sensor (Fortébio, 18-0039) with 1xPBST was pre-wet for 10 minutes, and then tested on the machine. Each cycle includes the following steps: 1) immersing in buffer for 60 s; 2) detecting whether the antigen non-specifically binds to the sensor; 3) regenerating with glycine solution at 10 mM pH 1.7; 4) immersing in buffer for 60 s; 5) immobilizating the antibody on the sensor for 30 s; 6) immersing the sensor in the buffer for 180 s; 7) Association of the antigen- antibody for 180 s; 8) dissociation of the antigen-antibody for 10 min; 9) regenerating the sensor.

human FcRn = biological target: T2, human FcRn (human, UniProt P55899 24-297; P61769 21-119); assay: BLI (Octet RED96e), pH 6.0, FcRn captured through biotin-conjugated anti-His antibody, antibody 31.3-1000 nM
T2 construct: Bought protein; also called hFcRn
Protocol: (§1) The affinity of the antibody to human FcRn (Acro, FCN-H52W7) and cynomolgus monkey FcRn (Acro, FCM-C52W9) was determined according to the method of Example 2 using Octet RED96e (Fortebio). Wherein, human FcRn and cynomolgus FcRn were diluted to 5 µg/mL with 1xPBS (10 mM Na2HPO4.12H2O, 2 mM KH2PO4, 137 mM NaCl, 2.7 mM KCl, pH 6.0), respectively, and biotin-conjugated THETM His-tagged mouse monoclonal antibody was diluted to 2 µg/mL; the antibody to be tested was diluted with 1x PBST (1xPBS, 0.02% Tween 20, pH6.0), and the antibody dilution concentration ranged from 1000 nM - 31.3 nM.

cynomolgus monkey FcRn = biological target: T3, cynomolgus monkey FcRn (cynomolgus monkey, UniProt Q8SPV9 24-297; Q8SPW0 21-119); assay: as above
T3 construct: Bought protein; also called Cynomolgus FcRn; cynomolgus FcRn
Protocol: as §1

T2 sequence (P55899 24-297 limits assumed, chain 1 of 2): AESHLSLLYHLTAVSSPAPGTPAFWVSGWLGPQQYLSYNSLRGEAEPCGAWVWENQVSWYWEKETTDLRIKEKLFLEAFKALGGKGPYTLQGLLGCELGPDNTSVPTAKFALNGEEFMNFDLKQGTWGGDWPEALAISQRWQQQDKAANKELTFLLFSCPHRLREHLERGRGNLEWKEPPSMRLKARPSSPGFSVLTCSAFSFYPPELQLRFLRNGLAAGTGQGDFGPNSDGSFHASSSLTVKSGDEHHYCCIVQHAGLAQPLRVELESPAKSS
T2 sequence (P61769 21-119 limits assumed, chain 2 of 2): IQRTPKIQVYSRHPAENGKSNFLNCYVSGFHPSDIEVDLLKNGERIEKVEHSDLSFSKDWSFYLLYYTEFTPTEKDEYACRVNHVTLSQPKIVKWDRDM
T3 sequence (Q8SPV9 24-297 limits assumed, chain 1 of 2): as the sequence (P55899 24-297 limits assumed, chain 1 of 2) above, with N39D, E44Q, G99S, S189G, S190N, L217M, S269T counted along it
T3 sequence (Q8SPW0 21-119 limits assumed, chain 2 of 2): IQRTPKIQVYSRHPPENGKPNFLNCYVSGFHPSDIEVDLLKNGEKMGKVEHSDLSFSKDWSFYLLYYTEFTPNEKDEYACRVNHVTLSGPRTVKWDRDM

Binder | Kd [1] [nM] | koff [1] [s⁻¹] | kon [1] [M⁻¹ s⁻¹] | Kd (human FcRn) [nM] | koff (human FcRn) [s⁻¹] | kon (human FcRn) [M⁻¹ s⁻¹] | Kd (cynomolgus monkey FcRn) [nM] | koff (cynomolgus monkey FcRn) [s⁻¹] | kon (cynomolgus monkey FcRn) [M⁻¹ s⁻¹]
AB1904Am2 (antibody, V domains shown, IgG1 format) VH: EVQLVESGGGLVQPGGSLRLSCAVSGYSIRSGYSWNWVRQAPGKGLEWVSVITYAGSTNYADSVKGRFTISRDDSKNTFYLQMNSLRAEDTAVYYCARGSHYFGHWHFAVWGQGTLVTVSS VL: DIQLTQSPSSLSASVGDRVTITCRASQSVADEWDSYMNWYQQKPGKAPKLLIYAASYLQSGVPSRFSGSGSGTDFTLTISSLQPEDFATYYCQQSHEDPYTFGQGTKLEIK | 0.11 | 0.000222 | 2.06e+06 | – | – | – | – | – | –
AB1904Am11 (antibody, V domains shown, IgG1 format) VH: EVQLVESGGGLVQPGGSLRLSCAVSGYSITSGYSWNWVRQAPGKGLEWVSVITYAGSTNYADSVKGRFTISRDDSKNTFYLQMNSLRAEDTAVYYCARGTHYFGHWHFAVWGQGTLVTVSS VL: DIQLTQSPSSLSASVGDRVTITCRASQSVNDEADSYMNWYQQKPGKAPKLLIYAASYLQSGVPSRFSGSGSGTDFTLTISSLQPEDFATYYCQQSHEDPYTFGQGTKLEIK | 0.17 | 0.000248 | 1.5e+06 | – | – | – | – | – | –
AB1904Am6 (antibody, V domains shown, IgG1 format) VH: EVQLVESGGGLVQPGGSLRLSCAVSGYSITSGYSWNWVRQAPGKGLEWVSVITYAGSTNYADSVKGRFTISRDDSKNTFYLQMNSLRAEDTAVYYCARGSNYFGHWHFAVWGQGTLVTVSS VL: DIQLTQSPSSLSASVGDRVTITCRASQSVDSEGDSYMNWYQQKPGKAPKLLIYAASYLQSGVPSRFSGSGSGTDFTLTISSLQPEDFATYYCQQSHEDPYTFGQGTKLEIK | 0.18 | 0.000308 | 1.74e+06 | – | – | – | – | – | –
AB1904Am5 (antibody, V domains shown, IgG1 format) VH: EVQLVESGGGLVQPGGSLRLSCAVSGYSITSGYSWNWVRQAPGKGLEWVSVITYAGSTNYADSVKGRFTISRDDSKNTFYLQMNSLRAEDTAVYYCARGSHYFGHWHFAVWGQGTLVTVSS VL: DIQLTQSPSSLSASVGDRVTITCRASQSVDDEYDSYMNWYQQKPGKAPKLLIYAASYLQSGVPSRFSGSGSGTDFTLTISSLQPEDFATYYCQQSHEDPYTFGQGTKLEIK | 0.15 | 0.000267 | 1.77e+06 | – | – | – | – | – | –
AB1904Am3 (antibody, V domains shown, IgG1 format) VH: EVQLVESGGGLVQPGGSLRLSCAVSGYSITSGYSWNWVRQAPGKGLEWVSVITYAGSTNYADSVKGRFTISRDDSKNTFYLQMNSLRAEDTAVYYCARGTHYFGHWHFAVWGQGTLVTVSS VL: DIQLTQSPSSLSASVGDRVTITCRASQSVDAEGDSYMNWYQQKPGKAPKLLIYAASYLQSGVPSRFSGSGSGTDFTLTISSLQPEDFATYYCQQSHEDPYTFGQGTKLEIK | 0.16 | 0.000272 | 1.7e+06 | – | – | – | – | – | –
AB1904Am10 (antibody, IgG1 format) VL: DIQLTQSPSSLSASVGDRVTITCRASQSVGDEADSYMNWYQQKPGKAPKLLIYAASYLQSGVPSRFSGSGSGTDFTLTISSLQPEDFATYYCQQSHEDPYTFGQGTKLEIKRTVAAPSVFIFPPSDEQLKSGTASVVCLLNNFYPREAKVQWKVDNALQSGNSQESVTEQDSKDSTYSLSSTLTLSKADYEKHKVYACEVTHQGLSSPVTKSFNRGEC VH: not shown | – | – | – | 98.7 | 0.121 | 1.22e+06 | 91.4 | 0.106 | 1.16e+06
AB1904Am15 (antibody, Same variable regions as AB1904Am10) VL: DIQLTQSPSSLSASVGDRVTITCRASQSVGDEADSYMNWYQQKPGKAPKLLIYAASYLQSGVPSRFSGSGSGTDFTLTISSLQPEDFATYYCQQSHEDPYTFGQGTKLEIKRTVAAPSVFIFPPSDEQLKSGTASVVCLLNNFYPREAKVQWKVDNALQSGNSQESVTEQDSKDSTYSLSSTLTLSKADYEKHKVYACEVTHQGLSSPVTKSFNRGEC VH: EVQLVESGGGLVQPGGSLRLSCAVSGYSITSGYSWNWVRQAPGKGLEWVSVITYAGSTNYADSVKGRFTISRDDSKNTFYLQMNSLRAEDTAVYYCARGTHYFGHWHFAVWGQGTLVTVSSASTKGPSVFPLAPSSKSTSGGTAALGCLVKDYFPEPVTVSWNSGALTSGVHTFPAVLQSSGLYSLSSVVTVPSSSLGTQTYICNVNHKPSNTKVDKKVEPKSCDKTHTCPPCPAPELLGGPSVFLFPPKPKDTLYITREPEVTCVVVDVSHEDPEVKFNWYVDGVEVHNAKTKPREEQYNSTYRVVSVLTVLHQDWLNGKEYKCKVSNKALPAPIEKTISKAKGQPREPQVYTLPPSREEMTKNQVSLTCLVKGFYPSDIAVEWESNGQPENNYKTTPPVLDSDGSFFLYSKLTVDKSRWQQGNVFSCSVMHEALHNHYTQKSLSLSPGK | – | – | – | 32.8 | 0.0287 | 875000 | 31.5 | 0.0291 | 922000
